According to patent US20040019918:

Target: GST-MKK4 fusion protein (available from Upstate Biotechnologies, Inc)

B1: purified mouse MEKK2 (protein)
chain: MDDQQALNSIMQDLAVLHKASRPALSLQETRKAKPSSPKKQNDVRVKFEHRGEKRILQVTRPVKLEDLRSKSKIAFGQSMDLHYTNNELVIPLTTQDDLDKAVELLDRSIHMKSLKILLVVNGSTQATNLEPSPSPEDLNNTPLGAERKKRLSVVGPPNRDRSSPPPGYIPDILHQIARNGSFTSINSEGEFIPESMDQMLDPLSLSSPENSGSGSCPSLDSPLDGESYPKSRMPRAQSYPDNHQEFTDYDNPIFEKFGKGGTYPRRYHVSYHHQEYNDGRKTFPRARRTQGTSFRSPVSFSPTDHSLSTSSGSSVFTPEYDDSRIRRRGSDIDNPTLTVTDISPPSRSPRAPTNWRLGKLLGQGAFGRVYLCYDVDTGRELAVKQVQFNPESPETSKEVNALECEIQLLKNLLHERIVQYYGCLRDPQEKTLSIFMELSPGGSIKDQLKAYGALTENVTRKYTRQILEGVHYLHSNMIVHRDIKGANILRDSTGNIKLGDFGASKRLQTICLSGTGMKSVTGTPYWMSPEVISGEGYGRKADIWSVACTVVEMLTEKPPWAEFEAMAAIFKIATQPTNPKLPPHVSDYTRDFLKRIFVEAKLRPSAEELLRHMFVHYH
- phosphorylation of GST-MKK4 (32P incorporation from [gamma-32P]-ATP, SDS-PAGE, imaging): comparable to the activity of purified mouse MEKK2

B2: His-tagged hMEKK2 (polyhistidine-hMEKK2 fusion) (protein)
chain: HHHHHHMDDQQALNSIMQDLAVLHKASRPALSLQETRKAKSSSPKKQNDVRVKFEHRGEKRILQFPRPVKLEDLRSKAKIAFGQSMDLHYTNNELVIPLTTQDDLDKAVELLDRSIHMKSLKILLVINGSTQATNLEPLPSLEDLDNTVFGAERKKRLSIIGPTSRDRSSPPPGYIPDELHQVARNGSFTSINSEGEFIPESMDQMLDPLSLSSPENSGSGSCPSLDSPLDGESYPKSRMPRAQSYPDNHQEFSDYDNPIFEKFGKGGTYPRRYHVSYHHQEYNDGRKTFPRARRTQGTSLRSPVSFSPTDHSLSTSSGSSIFTPEYDDSRIRRRGSDIDNPTLTVMDISPPSRSPRAPTNWRLGKLLGQGAFGRVYLCYDVDTGRELAVKQVQFDPDSPETSKEVNALECEIQLLKNLLHERIVQYYGCLRDPQEKTLSIFMEYMPGGSIKDQLKAYGALTENVTRKYTRQILEGVHYLHSNMIVHRDIKGANILRDSTGNVKLGDFGASKRLQTICLSGTGMKSVTGTPYWMSPEVISGEGYGRKADIWSVACTVVEMLTEKPPWAEFEAMAAIFKIATQPTNPKLPPHVSDYTRDFLKRIFVEAKLRPSADELLRHMFVHYH
- phosphorylation of GST-MKK4 (32P incorporation from [gamma-32P]-ATP, SDS-PAGE, imaging): comparable to the activity of purified mouse MEKK2, and significantly above the background levels seen with control extracts
